Laboratory results from the Immune Epitope Database (IEDB).

Experiments:
HLA-B*51:01 [1] = assay: IEDB peptide-MHC binding, purified MHC/competitive/fluorescence; filed as Kd, often an IC50 or EC50 that approximates it; ≥ and ≤ were set here for values at or beyond the usual limits of such assays; settings: source organism: Vibrio cholerae 2740-80
HLA-A*02:12 = assay: as above; settings: source organism: Vibrio cholerae 2740-80
HLA-A*03:01 [2] = assay: as above; settings: source organism: Vibrio cholerae 2740-80
HLA-A*02:01 [3] = assay: as above; settings: source organism: Vibrio cholerae 2740-80
HLA-A*02:16 = assay: as above; settings: source organism: Vibrio cholerae 2740-80
HLA-B*27:03 = assay: as above; settings: source organism: Vibrio cholerae 2740-80
HLA-B*46:01 = assay: as above; settings: source organism: Vibrio cholerae 2740-80
HLA-A*02:03 = assay: as above; settings: source organism: Vibrio cholerae 2740-80
HLA-A*25:01 [4] = assay: as above; settings: source organism: Vibrio cholerae 2740-80
HLA-B*57:01 [5] = assay: as above; settings: source organism: Vibrio cholerae 2740-80
HLA-A*24:03 = assay: as above; settings: source organism: Vibrio cholerae 2740-80
HLA-A*02:19 = assay: as above; settings: source organism: Vibrio cholerae 2740-80
HLA-A*26:01 = assay: as above; settings: source organism: Vibrio cholerae 2740-80
HLA-B*35:01 = assay: IEDB peptide-MHC binding, purified MHC/competitive/fluorescence; ≥ and ≤ were set here for values at or beyond the usual limits of such assays
HLA-A*11:01 = assay: as above
HLA-B*08:01 = assay: as above
HLA-B*44:03 = assay: as above
HLA-B*51:01 [6] = assay: as above
HLA-A*29:02 = assay: as above
HLA-B*07:02 = assay: as above
HLA-B*18:01 = assay: as above
HLA-B*40:02 = assay: as above
HLA-A*03:01 [7] = assay: as above
HLA-A*68:02 = assay: as above
HLA-A*02:01 [8] = assay: as above
HLA-B*37:01 = assay: as above
HLA-A*24:02 [9] = assay: as above
HLA-B*58:01 [10] = assay: as above
HLA-A*25:01 [11] = assay: as above
HLA-A*01:01 = assay: as above
HLA-A*31:01 = assay: as above
HLA-B*14:02 = assay: as above
HLA-B*53:01 = assay: as above
HLA-B*40:01 = assay: IEDB peptide-MHC binding, purified MHC/competitive/radioactivity; ≥ and ≤ were set here for values at or beyond the usual limits of such assays; settings: source organism: Human papillomavirus 16
HLA-A*24:02 [12] = assay: as above; settings: source organism: Homo sapiens
HLA-B*58:01 [13] = assay: IEDB peptide-MHC binding, purified MHC/direct/fluorescence; filed as Kd, often an IC50 or EC50 that approximates it; ≥ and ≤ were set here for values at or beyond the usual limits of such assays; settings: source organism: Escherichia coli O157:H7
HLA-B*57:01 [14] = assay: as above; settings: source organism: Escherichia coli O157:H7
HLA-B*15:17 = assay: as above; settings: source organism: Escherichia coli O157:H7
HLA-C*04:01 [15] = assay: as above; settings: source organism: Escherichia coli O139:H28 str. E24377A
HLA-B*45:06 = assay: IEDB peptide-MHC binding, purified MHC/competitive/fluorescence; filed as Kd, often an IC50 or EC50 that approximates it; ≥ and ≤ were set here for values at or beyond the usual limits of such assays; settings: source organism: Giardia lamblia ATCC 50803
HLA-A*68:23 = assay: as above; settings: source organism: Giardia lamblia ATCC 50803
HLA-B*73:01 = assay: as above; settings: source organism: Giardia lamblia ATCC 50803
HLA-C*14:02 = assay: as above; settings: source organism: Giardia lamblia ATCC 50803
HLA-B*83:01 = assay: as above; settings: source organism: Giardia lamblia ATCC 50803
HLA-C*04:01 [16] = assay: as above; settings: source organism: Giardia lamblia ATCC 50803
HLA-B*15:42 = assay: as above; settings: source organism: Giardia lamblia ATCC 50803
HLA-C*06:02 = assay: IEDB peptide-MHC binding, purified MHC/direct/fluorescence; filed as Kd, often an IC50 or EC50 that approximates it; ≥ and ≤ were set here for values at or beyond the usual limits of such assays; settings: source organism: Giardia lamblia ATCC 50803
HLA-C*05:01 = assay: as above; settings: source organism: Giardia lamblia ATCC 50803
[17] = source organism: Ateles geoffroyi

**Q.** With HSYLWDHQM as the sequence, how does the Kd (HLA-B*51:01 [1]) read?
**A.** ≥ 20 µM

**Q.** And the Kd (HLA-A*02:12)?
**A.** ≥ 20 µM

**Q.** What about the Kd (HLA-A*03:01 [2]) of the same sequence?
**A.** ≥ 20 µM

**Q.** And the Kd (HLA-A*02:01 [3])?
**A.** ≥ 20 µM

**Q.** What about the Kd (HLA-A*02:16) of the same sequence?
**A.** ≥ 20 µM

**Q.** And the Kd (HLA-B*27:03)?
**A.** ≥ 20 µM

**Q.** And the Kd (HLA-B*46:01)?
**A.** ≥ 20 µM

**Q.** And the Kd (HLA-A*02:03)?
**A.** ≥ 20 µM

**Q.** And the Kd (HLA-A*25:01 [4])?
**A.** ≥ 20 µM

**Q.** And the Kd (HLA-B*57:01 [5])?
**A.** 0.0547 µM

**Q.** What about the Kd (HLA-A*24:03) of the same sequence?
**A.** ≥ 20 µM

**Q.** And the Kd (HLA-A*02:19)?
**A.** ≥ 20 µM

**Q.** What about the Kd (HLA-A*26:01) of the same sequence?
**A.** ≥ 20 µM

**Q.** How did the IC50 (HLA-B*35:01; source organism: Homo sapiens) turn out when ILNRETLLDFV was run?
**A.** ≥ 20 µM

**Q.** What about the IC50 (HLA-A*11:01; source organism: Homo sapiens) of the same sequence?
**A.** ≥ 20 µM

**Q.** What about the IC50 (HLA-B*08:01; source organism: Homo sapiens) of the same sequence?
**A.** ≥ 20 µM

**Q.** What about the IC50 (HLA-B*44:03; source organism: Homo sapiens) of the same sequence?
**A.** ≥ 20 µM

**Q.** What about the IC50 (HLA-B*51:01 [6]; source organism: Homo sapiens) of the same sequence?
**A.** ≥ 20 µM

**Q.** And the IC50 (HLA-A*29:02; source organism: Homo sapiens)?
**A.** 13.2 µM

**Q.** And the IC50 (HLA-B*07:02; source organism: Homo sapiens)?
**A.** ≥ 20 µM

**Q.** And the IC50 (HLA-B*18:01; source organism: Homo sapiens)?
**A.** ≥ 20 µM

**Q.** And the IC50 (HLA-B*40:02; source organism: Homo sapiens)?
**A.** 0.995 µM

**Q.** What about the IC50 (HLA-A*03:01 [7]; source organism: Homo sapiens) of the same sequence?
**A.** ≥ 20 µM

**Q.** What about the IC50 (HLA-A*68:02; source organism: Homo sapiens) of the same sequence?
**A.** ≥ 20 µM

**Q.** And the IC50 (HLA-A*02:01 [8]; source organism: Homo sapiens)?
**A.** 0.0939 µM

**Q.** What about the IC50 (HLA-B*37:01; source organism: Homo sapiens) of the same sequence?
**A.** ≥ 20 µM

**Q.** What about the IC50 (HLA-A*24:02 [9]; source organism: Homo sapiens) of the same sequence?
**A.** ≥ 20 µM

**Q.** And the IC50 (HLA-B*58:01 [10]; source organism: Homo sapiens)?
**A.** ≥ 20 µM

**Q.** And the IC50 (HLA-A*25:01 [11]; source organism: Homo sapiens)?
**A.** ≥ 20 µM

**Q.** What about the IC50 (HLA-A*01:01; source organism: Homo sapiens) of the same sequence?
**A.** ≥ 20 µM

**Q.** And the IC50 (HLA-A*31:01; source organism: Homo sapiens)?
**A.** ≥ 20 µM

**Q.** What about the IC50 (HLA-B*14:02; source organism: Homo sapiens) of the same sequence?
**A.** ≥ 20 µM

**Q.** What about the IC50 (HLA-B*53:01; source organism: Homo sapiens) of the same sequence?
**A.** ≥ 20 µM

**Q.** Which results are given for LPADPASVL?
**A.** IC50 (HLA-B*35:01; [17]): 0.006 µM; IC50 (HLA-A*11:01; [17]): ≥ 20 µM; IC50 (HLA-B*08:01; [17]): ≥ 20 µM; IC50 (HLA-B*44:03; [17]): ≥ 20 µM; IC50 (HLA-B*51:01 [6]; [17]): 1.62 µM; IC50 (HLA-A*29:02; [17]): 1.09 µM; IC50 (HLA-B*07:02; [17]): 0.134 µM; IC50 (HLA-B*18:01; [17]): ≥ 20 µM; IC50 (HLA-B*40:02; [17]): 3.3 µM; IC50 (HLA-A*03:01 [7]; [17]): ≥ 20 µM; IC50 (HLA-A*68:02; [17]): 0.818 µM; IC50 (HLA-A*02:01 [8]; [17]): ≥ 20 µM; IC50 (HLA-B*37:01; [17]): ≥ 20 µM; IC50 (HLA-A*24:02 [9]; [17]): ≥ 20 µM; IC50 (HLA-B*58:01 [10]; [17]): ≥ 20 µM; IC50 (HLA-A*25:01 [11]; [17]): ≥ 20 µM; IC50 (HLA-A*01:01; [17]): ≥ 20 µM; IC50 (HLA-A*31:01; [17]): ≥ 20 µM; IC50 (HLA-B*14:02; [17]): 14.5 µM; IC50 (HLA-B*53:01; [17]): 1.61 µM

**Q.** With SEYRHYCYSL as the sequence, how does the IC50 (HLA-B*40:01) read?
**A.** 0.00054 µM

**Q.** For TYSVSFDSL, which IC50 (HLA-A*24:02 [12]) is on record?
**A.** 0.197 µM

**Q.** For YMWECPDFF, which Kd (HLA-B*58:01 [13]) is on record?
**A.** ≥ 5 µM

**Q.** And the Kd (HLA-B*57:01 [14])?
**A.** 1.44 µM

**Q.** And the Kd (HLA-B*15:17)?
**A.** 0.157 µM

**Q.** What about the Kd (HLA-C*04:01 [15]) of the same sequence?
**A.** 0.137 µM

**Q.** For YPFHIFYPV, which Kd (HLA-B*45:06) is on record?
**A.** 4.7 µM

**Q.** What about the Kd (HLA-A*68:23) of the same sequence?
**A.** 0.0431 µM

**Q.** What about the Kd (HLA-B*73:01) of the same sequence?
**A.** 1.33 µM

**Q.** And the Kd (HLA-C*14:02)?
**A.** 0.189 µM

**Q.** What about the Kd (HLA-B*83:01) of the same sequence?
**A.** 0.137 µM

**Q.** What about the Kd (HLA-C*04:01 [16]) of the same sequence?
**A.** ≥ 5 µM

**Q.** And the Kd (HLA-B*15:42)?
**A.** ≥ 5 µM

**Q.** What about the Kd (HLA-C*06:02) of the same sequence?
**A.** ≥ 20 µM

**Q.** And the Kd (HLA-C*05:01)?
**A.** ≥ 20 µM
